Data as given in US20230203180A1.

Biological target: transferrin receptor (on Hepa 1-6 cells; in tissues of C57BL/6 wild-type mice) (mouse) (UniProt Q62351)
Assay: cell-based or functional assay

UniProt Q62351, sequence (Q62351 whole entry): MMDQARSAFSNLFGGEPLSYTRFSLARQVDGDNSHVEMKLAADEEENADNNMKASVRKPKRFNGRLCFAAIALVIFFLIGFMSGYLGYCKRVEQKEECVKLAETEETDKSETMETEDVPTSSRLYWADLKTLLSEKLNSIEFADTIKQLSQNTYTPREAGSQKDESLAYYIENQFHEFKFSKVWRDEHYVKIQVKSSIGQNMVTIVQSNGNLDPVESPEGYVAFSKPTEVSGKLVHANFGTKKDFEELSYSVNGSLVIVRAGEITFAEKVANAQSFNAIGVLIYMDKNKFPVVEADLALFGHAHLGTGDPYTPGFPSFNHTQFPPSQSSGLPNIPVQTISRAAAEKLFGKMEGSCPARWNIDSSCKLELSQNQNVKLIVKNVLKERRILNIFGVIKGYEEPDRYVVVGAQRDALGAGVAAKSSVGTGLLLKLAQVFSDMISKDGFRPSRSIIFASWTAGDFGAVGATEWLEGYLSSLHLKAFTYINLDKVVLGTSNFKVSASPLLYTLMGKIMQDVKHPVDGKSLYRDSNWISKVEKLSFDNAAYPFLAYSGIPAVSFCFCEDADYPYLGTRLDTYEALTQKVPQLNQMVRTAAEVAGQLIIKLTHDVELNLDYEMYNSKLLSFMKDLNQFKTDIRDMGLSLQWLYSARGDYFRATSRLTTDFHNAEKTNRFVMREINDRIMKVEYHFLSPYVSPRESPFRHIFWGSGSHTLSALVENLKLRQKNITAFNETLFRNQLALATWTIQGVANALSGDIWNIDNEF

- reduction in HPRT expression in Hepa 1-6 cells (100 nM complex, 72 hours): 50%
- reduction in HPRT expression in gastrocnemius of C57BL/6 mice (single i.v. dose, 2 mg/kg RNA, day 3): 31%
- reduction in HPRT expression in heart of C57BL/6 mice (single i.v. dose, 2 mg/kg RNA, day 3): 30%
Substance: antiTfR-siHPRT complex: RI7 217 anti-TfR1 Fab (DTX-A-002) covalently linked via a non-cleavable GMBS linker to HPRT siRNA (siHPRT)
